The source of these data is the nanobody polyreactivity screen of Harvey et al. (2022).

This data set can be described thus: yeast display, Sf9 membrane polyspecificity reagent, FACS + sequencing; frameworks hold sequencing errors. The method, boiled down:
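Galactose induction of a Saccharomyces cerevisiae BJ5465 synthetic nanobody display library ran 36–48 hours. The cells were then stained for 1 hour at 4 °C with 10% biotinylated, detergent-solubilized Sf9 membrane reagent, pulled down on streptavidin microbeads and FACS-sorted into low and high (top ~1%) gates on expression and reagent-binding fluorescence. Labels for polyreactivity follow the gate of origin.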
In the case of “QVQLVESGGGLVQAGGSLRLSCAASGRISYSYAMGWYRQAPGKERELVAAISYSGGTTYYADSVKGRFTISRDNAKNTVYLQMNSLKPEDTAVYYCAVDGYDTYGFNGYYIRSGYWGQGTQVTVSS”, the “polyreactivity (PSR sort gate)” value was “low polyreactivity”.

As to “QVQLVESGGGLVQAGGSLRLSCAASGRITYYAMGWYRQAPGKERELVAAITWSGGRTYYADSVKGRFTISRDNAKNTVYLQMNSLKPEDTAVYYCAKTRIYSKHWTEPYFYRVDSWGQGTQVTVSS”, the “polyreactivity (PSR sort gate)” value is recorded as “high polyreactivity”.

In the case of “QVQLVESGGGLVQAGGSLRLSCAASGRIVGRYAMAWYRQAPGKERELVAAISSGTSTNYADSVKGRFTISRDNAKNTVYLQMNSLKPEDTAVYYCAVVLYRHWWYDYWGKGTQVTVSS”, the “polyreactivity (PSR sort gate)” value is “high polyreactivity”.

In the case of “QVQLVESGGGLVQAGGSLRLSCAASGRIVSHYAMGWYRQAPGKERELVAAISRSGSTYYADSVKGRFTISRDNAKNTVYLQMNSLKPEDTAVYYCATRLYTVGPYGYWGQGTQVTVSS”, the “polyreactivity (PSR sort gate)” value is on record as “low polyreactivity”.

As for “QVQLVESGGGLVQAGGSLRLSCAASGRIVYSNTMGWYRQAPGKERELVARIDTGGGSTYADSVKGRFTISRDNAKNTVYLQMNSLKPEDTAVYYCNKKGRWRSWGSTSLVSMDYWGQGTQVTVSS”, the “polyreactivity (PSR sort gate)” value is “low polyreactivity”.

Turning to “QVQLVESGGGLVQAGGSLRLSCAASGRIVYYNVMGWYRQAPGKEREFVAAISTRTGSTYYADSVKGRFTISRDNAKNSVYLQMNRLKPEDTAVYYCAAPYRAYSYDYWGQGTQVTVSS”, the “polyreactivity (PSR sort gate)” value is recorded as “high polyreactivity”.

Turning to “QVQLVESGGGLVQAGGSLRLSCAASGRIWVNALGWYRQAPGKEREFVAAISTSSASTYYADSVKGRFTISRDNAKNTVYLQMNSLKPEDTAVYYCASRYLGKKYYWFKTMDYWGQGTQVTVSS”, the “polyreactivity (PSR sort gate)” value is “high polyreactivity”.

Consider “QVQLVESGGGLVQAGGSLRLSCAASGRIYGNAMGWYRQAPGKERELVAAISWSGGSTYYADSVKGRFTISRDNAKNTVYLQMNSLKPEDTAVYYCAATYPQGKYTYGRSYDYWGQGTQVTVSS”, for which the “polyreactivity (PSR sort gate)” value is on record as “high polyreactivity”.

With “QVQLVESGGGLVQAGGSLRLSCAASGRIYGVYVMGWYRQAPGKERELVAAISWSGSHTYYADSVKGRFTISRDNAKNTVYLQMNSLKPEDTAVYYCKADSYPDYTGPGLDWYDYWGQGTQVTVSS”, the “polyreactivity (PSR sort gate)” value is “low polyreactivity”.

Turning to “QVQLVESGGGLVQAGGSLRLSCAASGRIYGYAMGWYRQAPGKEREFVAVISRRGSSTYYADSVKGRFTISRDNAKNTVYLQMNSLKPEDTAVYYCAAGKFYYSIGPGYDYWGQGTQVTVSS”, the “polyreactivity (PSR sort gate)” value was “high polyreactivity”.

Regarding “QVQLVESGGGLVQAGGSLRLSCAASGRIYLYAMGWYRQAPRKERELVASISYSGGSTYYADSVKGRFTISRDNAKNTVYLQMNSLKPEDTAVYYCATRRAGSCPPYGYWGQGSQVTVSS”, the “polyreactivity (PSR sort gate)” value was “high polyreactivity”.

“QVQLVESGGGLVQAGGSLRLSCAASGRIYNRNAMGWYRQAPGKERDLVAAITYRGGSTYYADSVKGRFTISRDNAKNTVCLQMNSLKPEDTAVYYCAKDVKQWSVSASYRFGYWGQGTQVTVSS”: the “polyreactivity (PSR sort gate)” value is listed as “high polyreactivity”.

For “QVQLVESGGGLVQAGGSLRLSCAASGRIYPYAMGWYRQAPGKERELVAAITSRGGTTYYADSVKGRFTISRDNAKNTVYLQMNSLKPEDSAVYYCAADQHIRVSWYLQMYYWGQGTQVTVSS”, the “polyreactivity (PSR sort gate)” value is recorded as “low polyreactivity”.

With “QVQLVESGGGLVQAGGSLRLSCAASGRIYRYAMGWYIQAPGKERELVASISYSGGSTYYADSVKGRFTISRDNAKNTVYLQMNSLKPEDTAVYYCAARTRHVHYGYWGQGTQVTVSS”, the “polyreactivity (PSR sort gate)” value is “high polyreactivity”.

Consider “QVQLVESGGGLVQAGGSLRLSCAASGRIYRYVMGWYRQAPGKERELVATITGRGGSTYYADSVKGRFTISRDNAKHTVYLQMNILKPEDTAVYYCAAAGRGSWTTYRFDYWGQGTQVTVSS”, for which the “polyreactivity (PSR sort gate)” value is given as “high polyreactivity”.

As to “QVQLVESGGGLVQAGGSLRLSCAASGRIYSVYTMGWYRQAPGKERELVATISSGGRTNYADSVKGRFTISRDNAKNTVYLQMNSLKPEDTAVYYCAADWVYPPGLKDSVHFGEYDYWGQGTQVTVSS”, the “polyreactivity (PSR sort gate)” value is “low polyreactivity”.

As for “QVQLVESGGGLVQAGGSLRLSCAASGRIYSWYAMGWYRQAPGKERELVAVISRGVSTYYADSVKGRFTISRDNAKNTVYLQMNSLKPEDTAVYYCAAYSGGRYYYWGQGTQVTVSS”, the “polyreactivity (PSR sort gate)” value is “low polyreactivity”.

“QVQLVESGGGLVQAGGSLRLSCAASGRIYTYYAMGWYRQAPGKERELVAAISSGGSTYYADSVKGRFTISRDNAKNTVYLQMNSLKPEDTAVYYCNRVRRGVWRQDDYWGQGTQVTVSS”: the “polyreactivity (PSR sort gate)” value is on record as “high polyreactivity”.

For “QVQLVESGGGLVQAGGSLRLSCAASGRIYWYYAMAWSRQAPGKERELVAAINSGGNTNYADSVKGRFTISRDNAKNTVYLKMNSLKPEDTAVYYCAKGRWPLLLSKDLYYWGQGTQVTVSS”, the “polyreactivity (PSR sort gate)” value was “high polyreactivity”.

In the case of “QVQLVESGGGLVQAGGSLRLSCAASGRLFNEYAMGWYRQAAGNVRALVAGITWSGGSTSYADSVKGRFTISRDYAKNTVYLQMIILKPEDTAVYYCAADVYRRLRRYRYFYWGQGTQVTVSS”, the “polyreactivity (PSR sort gate)” value is listed as “low polyreactivity”.

Consider “QVQLVESGGGLVQAGGSLRLSCAASGRLFWYNAMGWYRQAPGKERELVARITRGTRTYYADSVKGRFTISRDNAKNTVSLQMNSLKPEDTAVYYCRLQLSYTPHYDYWGQGTQVTVSS”, for which the “polyreactivity (PSR sort gate)” value is “high polyreactivity”.

As to “QVQLVESGGGLVQAGGSLRLSCAASGRLSDNVMGWYRQAPGKERELVAAISSSGGTTYYADSVKGRFTISRDNAKNTVYLQMNSLKPEDTAVYYCNARTRGKMDYWGQGTQVTVSS”, the “polyreactivity (PSR sort gate)” value is listed as “high polyreactivity”.

Turning to “QVQLVESGGGLVQAGGSLRLSCAASGRMFGRYVMGWYRQAAGKERELVASISTRGGRTYYADSVKGRFTISRDIAKNTVYLQMNSLKPEDTAVYYCAVVYPRFGAYDYWGQCTQVTVSS”, the “polyreactivity (PSR sort gate)” value is given as “high polyreactivity”.

Turning to “QVQLVESGGGLVQAGGSLRLSCAASGRMFKINAMGCYRQAPGKERELVASIRTSSGSTYSADSVKGRFTLSRDNAKNTVYLQMNSLKPEDTAVYYCATQYRYYNHFVTPFTRYGYWGQGTQVTVSS”, the “polyreactivity (PSR sort gate)” value is recorded as “high polyreactivity”.

As to “QVQLVESGGGLVQAGGSLRLSCAASGRNFAKYAMGWYRQAPGKERELVAAINSSGGSTYYADSVKGRFTISRDNAKNTVYLQMNSLKPEDTAVYYCAALGIGSYRRYSGYDYWGQGTQVTVSS”, the “polyreactivity (PSR sort gate)” value was “low polyreactivity”.

For the sequence “QVQLVESGGGLVQAGGSLRLSCAASGRNFAWYAMGWYRQAPGKEREFVAAITYRAARTYYADSVKGRFTISRDNAKNTVYLQMNSLKPEDTAVYYCNAVGFDQPRYYYWGQGTQVTVSS”, the “polyreactivity (PSR sort gate)” value is listed as “high polyreactivity”.

Take “QVQLVESGGGLVQAGGSLRLSCAASGRNFAYYAMGWYRQEPGKERELVAVISKSGGSTNYADSVKGRFTISRDNAKNTVYLQMNSLKPEDTAVYYCAKRAYDPEMYYWGQGTQVTVSS”: the “polyreactivity (PSR sort gate)” value is reported as “low polyreactivity”.

In the case of “QVQLVESGGGLVQAGGSLRLSCAASGRNFFRYAMGWYRQAPGKERELVATISRSGGTYADSVKGRFTISRDNAKNTVYLQMNSLKPEDTAVYYCNARTLYAYITRDYWGQGTQVTVSS”, the “polyreactivity (PSR sort gate)” value is “high polyreactivity”.

For “QVQLVESGGGLVQAGGSLRLSCAASGRNFFTYAMGWYRQAPGKERELVASITGSGGSTYYADSVKGRFTISRDNAKYTVYLQMNSLKPEDTAVYYCAAALFRRQLYRKFYYWGQGTQVTVSS”, the “polyreactivity (PSR sort gate)” value is reported as “low polyreactivity”.

With “QVQLVESGGGLVQAGGSLRLSCAASGRNFGWYAMGWYRQATGKERELVAAITSGSRTSYADSVKGRFTISRDNAKNTVYLQMNSLKPEDTAVYYCARRSYGIYYRSADDSWGQGTQVTVSS”, the “polyreactivity (PSR sort gate)” value is reported as “high polyreactivity”.

“QVQLVESGGGLVQAGGSLRLSCAASGRNFHKYAMGWYRQAPGKERELVAAITGSGVRTYYADSVKGRFTISRDNAKNTVYLQMNSLKPEDTAVYYCNADSYYGNGDYWGQGTQVTVSS”: the “polyreactivity (PSR sort gate)” value was “high polyreactivity”.

As to “QVQLVESGGGLVQAGGSLRLSCAASGRNFIVNAMGWYRQAHGKEREFVAAITSRGGITYYADSVKGRFTISRDNAKNTVYLQMNSLKPEDTAVYYCAAGYITWGSGNWVVTPYDYWGQGTQVTVSS”, the “polyreactivity (PSR sort gate)” value is given as “high polyreactivity”.

As to “QVQLVESGGGLVQAGGSLRLSCAASGRNFNFNTIGWYRQAAGKEREFLAAITFRGVRTYYADSVKGRFTISRDNAKNTVYLQMISLKPEDTAVYYCATQARLYGGYDRYAGSYDYWGQGTQVTVSS”, the “polyreactivity (PSR sort gate)” value was “high polyreactivity”.

With “QVQLVESGGGLVQAGGSLRLSCAASGRNFPRYAMGWYRQAPGKERELVAAISWRGGSTRYADSVKGRFTISRDNEKNTVYLQMNSLKPEDTAVYYCAAEFWFFPGWAYEYWGQGTQVTVSS”, the “polyreactivity (PSR sort gate)” value is “high polyreactivity”.

“QVQLVESGGGLVQAGGSLRLSCAASGRNFPTKAMGWYREAPGTERELVAAITRSGSTYYADSVKGRFTISRDNAKNTVYLQMNSLKPEDTAVYYCAAYAYIFLDWGGYPYYLYEYDDWGQGTQVTVSS”: the “polyreactivity (PSR sort gate)” value is “low polyreactivity”.

Take “QVQLVESGGGLVQAGGSLRLSCAASGRNFRRYTMGWYRQAPGKERELVATISSGGSTYADSVKGRFTISRDNAKNTVYLQMNSVKPEDSAVYYCAAQTWGSGYGNIGRRRHDYWGQGTQVTVSS”: the “polyreactivity (PSR sort gate)” value is recorded as “high polyreactivity”.

With “QVQLVESGGGLVQAGGSLRLSCAASGRNFVYNAMGWYRQAPGKERELVAAITWGGGSTYYADSVKGRFTISRDKAKNTVYLQMNSLKPEDTAVYYCAADGVRKFPNSRYDYWGQGTQVTVSS”, the “polyreactivity (PSR sort gate)” value is “low polyreactivity”.

On to “QVQLVESGGGLVQAGGSLRLSCAASGRNFWFNAMGWYRQAPGKVRELVAAISGGSTNYADSVKGRFTISRDNAKNHVYLQMNSLKPEDTAVYYCAARYLLRYNWGQGTQVTVSS”, for which the “polyreactivity (PSR sort gate)” value is recorded as “high polyreactivity”.

Regarding “QVQLVESGGGLVQAGGSLRLSCAASGRNFYRNAMGWSRQAPGKERELVAAITGSGGITYYADSVKGRFTISRDNAKYTVYLQMNRLKPEDTGVYYCNARYYSHRYDYWGQGTQVTVSS”, the “polyreactivity (PSR sort gate)” value is “high polyreactivity”.

As for “QVQLVESGGGLVQAGGSLRLSCAASGRNFYSNAMGWYRQAPGKERELVAAIRWRDGSTYYADSVKGRFTISRDNAKNTVYLQMNSLKPEDTAVYYCAAVYWGEEYEYWGQGTQVTVSS”, the “polyreactivity (PSR sort gate)” value is “low polyreactivity”.
